Molecular target: FinO (Salmonella enterica SL1344 (virulence …, UniProt A0A0H3P176 1-187))
Assay: EMSA; yeast RNA 1 ug/reaction; apparent Kd; 25 mM Tris-HCl pH 7.4, 150 mM NaCl, 1 mM MgCl2, 1 ug yeast RNA/reaction, 4 nM labeled RNA, 37 C, 1 h (EMSA) or 30 min (filter binding)
Conditions: protein: recombinant, tags: His6-3C (expression plasmid pMiG007-His6-3C-FinO), label: 32P (5' end; 3' pCp alternative for probing)

B1: FinP (structured_RNA)
RNA: GGGACACAUAGGAACCUCCUCAAAGGAUUCUAUGGACAGUCGAUGCAGGGAGUGACAGCUCCCUGUAUCGGCGAUUUU
**Q.** How did the Kd (two stem-loops (SLI, SLII) with 3' U tail) turn out when B1 was run?
**A.** Its Kd is about 500 nM.

B2: RepX (structured_RNA)
RNA: GGGCAUUGAUUGCCUCCUUUGCAGGCAGUUGGUGGUUAGGCGCUGGCGGGGUCACUACCCCCGCCCUGCGCCGCUCU
**Q.** Which Kd (FinP-like stem-loops, short 3' tail) does the source give for B2 here?
**A.** Its Kd is about 500 nM.

— publication PMC8136791, “In vivo targets of Salmonella FinO include a FinP-like small RNA controlling copy number of a cohabitating plasmid”
